Data: PMC7432781, “An EPR Study on the Interaction between the Cu(I) Metal Binding Domains of ATP7B and the Atox1 Metallochaperone” (International Journal of Molecular Sciences, 2020)
*: point of attachment. MTSL = MTSL nitroxide spin label (R1), CC1(C)C=C(CS*)C(C)(C)N1[O]

Target: T1, ATP7B metal binding domains 4-6, spin-labeled (human, UniProt P35670 356-633, MTSL nitroxide spin label (R1) on C358, C431 and C490)
T1 construct: No residue limits are printed; the printed primers translate to a start at GTCSTTL and an end at FHASLAQ followed by a stop codon; Printed mass 29.2 kDa; also called MBD4-6; ATP7B 4-6 domains; source: E. coli Origami 2, purified (chitin bead column, intein self-cleavage with DTT)
T1 sequence (looked up): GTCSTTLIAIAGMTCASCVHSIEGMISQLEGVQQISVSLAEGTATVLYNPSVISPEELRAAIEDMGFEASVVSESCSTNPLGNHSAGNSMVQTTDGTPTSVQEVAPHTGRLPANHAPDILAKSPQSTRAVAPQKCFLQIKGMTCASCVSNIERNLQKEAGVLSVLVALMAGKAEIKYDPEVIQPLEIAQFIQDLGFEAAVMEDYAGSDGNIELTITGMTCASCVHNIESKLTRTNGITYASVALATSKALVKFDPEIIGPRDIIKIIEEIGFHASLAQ
Experiment: CW-EPR of spin-labeled proteins; X-band, room temperature (292 ± 5 K), in solution; Atox1 or sl-Atox1 added to spin-labeled MBDs at 1:1 (Atox1:MBD); with and without Cu(I); spin-labeled protein 0.01-0.03 mM
Details: both partners purified

B1: Atox1 metallochaperone, wild-type, non spin-labeled (natural protein, human)
chain: MPKHEFSVDMTCGGCAEAVSRVLNKLGGVKYDIDLPNKKVCIESEHSMDTLLATLKKTGKTVSYLGLE
notes: Atox1 copper metallochaperone, human, wild type
- binding result: binds

B2: Atox1 metallochaperone, spin-labeled at C41 (natural protein, human)
chain: MPKHEFSVDMTCGGCAEAVSRVLNKLGGVKYDIDLPNKKVC(MTSL)IESEHSMDTLLATLKKTGKTVSYLGLE
notes: Atox1 copper metallochaperone, human; also called sl-Atox1; spin-labeled Atox1
- binding result: binds
